Reference: US20060107351A1 (FLORIGENE, published 2006)

Biological target: the molecule itself
Assay: self-association; SDS-PAGE under reducing (Mr 26,900) versus non-reducing (Mr 114,000) conditions

B1: Rtms-5 colored protein tagged with hexahistidine at its C-terminus (other)
chain: SVIATQMTYKVYMSGTVNGHYFEVEGDGKGKPYEGEQTVKLTVTKGGPLPFAWDILSPQCQYGSIPFTKYPEDIPDYVKQSFPEGFTWERIMNFEDGAVCTVSNDSSIQGNCFTYHVKFSGLNFPPNGPVMQKKTQGWEPHSERLFARGGMLIGNNFMALKLEGGGHYLCEFKTTYKAKKPVKMPGYHYVDRKLDVTNHNKDYTSVEQCEISIARKPVVAHHHHHH
notes: also called RTms-5.pep; Rtms5.pep
  binding result: binds
